“Also recorded” adds a separate entry of the source.
Assays:
HC11 cells [1] = assay: Western blot analysis of WAP and PLIN2 in HC11 cells; type: cell-based, mouse; conditions: ECD titration
Experimental: To determine whether the promotion of dome formation also results in higher milk production, HC11 cells were differentiated in the presence or absence of ROBO1-ECD fragments that were added to cells simultaneously with DIP media. Cells were harvested and the expression of WAP and Lalba assessed by RT-qPCR. […] WAP expression levels were not increased in cells treated with DCC-Ig4 (FIG. 7K). Next, Western blot analysis of WAP and PLIN2 was performed on cells treated with ROBO1-Ig5 and ROBO1-Ecto.
Protein lysates were prepared by directly lysing adherent cells in 1× sample buffer supplemented with 5% beta-mercaptoethanol and boiled for 5 minutes. Protein lysate was resolved by SDS-PAGE and transferred to a PVDF for 90 minutes at 400 mA or overnight at 30 mA. Primary antibodies were used at the concentration indicated in Table 1 and incubated overnight at 4° C. HRP conjugated secondary antibodies (Jackson Labs) were used at 1:3000 and incubated for 45 minutes at room temp. All proteins were detected using Clarity ECL (BioRad) using a BioRad Chemi-Doc MP Imager and quantified using ImageLab software as previously described a.

[2] = Western blot of TCA-precipitated media for intact ROBO1-Ig5; type: physicochemical; conditions: after 6 days in media, absence and presence of heparin (300 ng/ml)
Description: Three recombinant ROBO1 ECD constructs were constructed: one comprising two immunoglobulin (Ig) domains (ROBO1-Ig2), another comprising all five Ig domains (ROBO1-Ig5), and another comprising the entire extracellular domain (ROBO1-Ecto) (FIG. 6A). In other constructs, HA (hemagglutinin), Myc, and human and mouse immunoglobulin Fc were fused to the Robo1 ECDs (FIG. 6A, 5F right). Extracellular domains of Deleted in Colorectal Cancer (DCC), a structurally similar Ig superfamily member to ROBO1, comprising either two Ig (DCC-Ig2) or four Ig (DCC-Ig4) domains and tagged with HA were constructed for use as negative controls (FIG. 6A, 5F right). Expression secretion of the constructs was confirmed by overexpressing the constructs in HEK293 cells and performing Western blots on cell lysates and media (FIG. 6B). […] Robo1-Ig5 as used herein was expressed in HEK-293 cells in the absence and presence of heparin (300 ng/ml). Media were collected from these ROBO1-Ig5 overexpressing cells on days two, four and six following plasmid transfection. Dot blot dilution assays of the collected media were performed to evaluate the relative secretion of this soluble ROBO1 ECD (FIG. 6C).
Add 1 volume of TCA stock to 4 volumes of protein sample. Incubate 10 min at 4° C. Spin tube in microcentrifuge at 14K rpm, 5 min. Remove supernatant, leaving protein pellet intact Wash pellet with 200 μl cold acetone. […]

HC11 cells [3] = assay: HC11 dome assay (milk dome formation on differentiation in DIP media); type: cell-based, mouse
Experimental: To investigate ROBO1 function during alveologenesis, Robo1 gene expression was inhibited in HC11 cells (Robo1 KD). HC11 cells are a well-established, prolactin-responsive model of lactation,^19,20. Cells in which Robo1 gene expression was not inhibited are referred to as WT or Robo1+/+ herein. To measure milk production, cells were grown to confluence and then primed by treatment with epidermal growth factor (EGF, 10 ng/ml). The EGF is administered for three days in combination with charcoal-stripped fetal bovine serum, followed by one day of charcoal-stripped fetal bovine serum in the absence of EGF. These primed cells are then differentiated by treatment with dexamethasone (1 μg/ml), insulin (5 μg/ml) and prolactin (Prl, 5 μg/ml) media (DIP media) for between 3 and 5 days (FIG. 2A). Differentiation (Dif) results in the development of milk-filled domes (FIG. 2B). […] If the cells were left undifferentiated (Undif), there was little dome formation in either WT or Robo1−/− cells (FIG. 2B). Next, tissue from Robo1 knockout mice (Robo1−/−) and wild type mice (WT or Robo1+/+) mice was analyzed. Mammary glands were harvested from pregnant day 18 WT and Robo1−/− animals and alveologenesis analyzed by serially sectioning, carmine staining and then quantifying the area occupied by alveoli in sections located at top, middle and bottom portions of the tissue.
Dome number formation in response to a titration of ROBO1 ECD fragments was quantified. […] A bovine ROBO1-Ig5 construct was also tested in this assay and, as with the rat constructs, more domes were formed in response to treatment with higher concentrations of […] (FIG. 7H).
HC11 cells were grown in RPMI 1640 media (Gibco) supplemented with 10% fetal bovine serum (BioFluid Technologies), 5 μg/mL insulin (Sigma), and 10 ng/ml epidermal growth factor (EGF; Sigma). To induce differentiation in HC11 cells, confluent plates were given fresh media (RPMI 1640 media supplemented with 5% charcoal-stripped fetal bovine serum (BioFluid Technologies), 5 μg/mL insulin, and 10 ng/ml epidermal growth factor (EGF; Sigma) for 3 days followed by 24 hours of priming in priming medium (RPMI 1640 media supplemented with 5% charcoal-stripped fetal bovine serum (BioFluid Technologies), and 5 μg/mL insulin. After priming, DIP medium (RPMI 1640 media supplemented with 5% charcoal-stripped fetal bovine serum (BioFluid Technologies), 10^−6 M dexamethasone (Sigma), 5 μg/mL insulin, and 5 μg/mL prolactin (National Hormone and Peptide program) was added with fresh media every 24 hours.

B1: ROBO1-Ig5: recombinant soluble ROBO1 ECD construct comprising all five Ig domains (protein)
chain: SRLRQEDFPPRIVEHPSDLIVSKGEPATLNCKAEGRPTPTIEWYKGGERVETDKDDPRSHRMLLPSGSLFFLRIVHGRKSRPDEGVYICVARNYLGEAVSHNASLEVAILRDDFRQNPSDVMVAVGEPAVMECQPPRGHPEPTISWKKDGSPLDDKDERITIRGGKLMITYTRKSDAGKYVCVGTNMVGERESEVAELTVLERPSFVKRPSNLAVTVDDSAEFKCEARGDPVPTVRWRKDDGELPKSRYEIRDDHTLKIRKVTAGDMGSYTCVAENMVGKAEASATLTVQEPPHFVVKPRDQVVALGRTVTFQCEATGNPQPAIFWRREGSQNLLFSYQPPQSSSRFSVSQTGDLTVTNVQRSDVGYYICQTLNVAGSIITKAYLEVTDVIADRPPPVIRQGPVNQTVAVDGTLTLSCVATGSPVPTILWRKDGVLVSTQDSRIKQLESGVLQIRYAKLGDTGRYTCTASTPSGEATWSAYIEVQEF
- PLIN2 protein expression (HC11 cells [1]): approximately two-fold; also recorded: increased
- WAP protein expression (HC11 cells [1]): approximately two-fold; also recorded: increased
- integrity of ROBO1-Ig5 protein in media [2]: intact; also recorded: no protein degradation
- dome formation in control cells (Scr) (HC11 cells [3]; HC11 Scramble KD (Scr) cells, ROBO1-ECD treatment): increased dome formation
- dome formation in response to a titration of ECD fragments (HC11 cells [3]; HC11 cells, increasing ECD concentration): higher rates of dome formation
- dome formation with ECD fragments generated in the presence of heparin (HC11 cells [3]; HC11 cells, vs same fragments generated in the absence of heparin (300 ng/ml)): fewer domes; also recorded: diminished
- dome formation in Notch4 knockdown cells (shNotch4) (HC11 cells [3]; HC11 shNotch4 cells, ROBO1-Ig5 treatment): same level of dome formation as untreated Notch4 knockdown cells; also recorded: unaffected
- dome formation in cells in which Robo1 expression was inhibited (shRobo1) (HC11 cells [3]; HC11 shRobo1 cells, ROBO1-Ig5 treatment): same level as that of control cells (Scr) treated with ROBO1-ECD fragments; also recorded: rescued

— patent publication US12139531B2, “Compositions and methods useful in promoting milk production” (The Regents of the University of California, priority 2019, dated 2024)
